Laboratory results taken from patent US6897054 (JAPAN SCIENCE AND TECHNOLOGY AGENCY, dated 2005).

Biological target: T1, huCdc7 fused to DNA-binding domain of Gal4 (human, UniProt P04386 1-147; O00311 1-574, limits assumed)
T1 construct: Yeast two-hybrid bait in strain CG1945; also called huCdc7 (two-hybrid bait)
Assay: yeast two-hybrid assay, lacZ activity
Experimental: In order to determine the region on H37 protein essential for binding with huCdc7, a series of deletion derivatives of H37 at N- and C-terminals as shown in FIG. 7 was prepared, each of them was expressed in yeast as a fusion protein with Gal4 activated domain and an interaction of each deletion derivative with huCdc7 was investigated by means of a two-hybrid assay. […] However, when 50 amino acids at N-terminal were further deleted whereupon the H37 motif C was deleted, an interaction with huCdc7 was completely lost (ΔN3).

B1: H37 deletion derivative ΔN3 fused to Gal4 activation domain (other, not shown: small tags and cut ends)
chain: LETHLLSEQHRNFAQSNQYQVVDDIVSKLVFDFVEYEKDTPKKKRIKYSVGSLSPVSASVLKKTEQKEKVELQHISQKDCQEDDTTVKEQNFLYKETQETEKKLLFISEPIPHPSNELRGLNEKMSNKCSMLSTAEDDIRQNFTQLPLHKNKQECILDISEHTLSENDLEELRVDHYKCNIQASVHVSDFSTDNSGSQPKQKSDTVLFPAKDLKEKDLHSIFTHDSGLITINSSQEHLTVQAKAPFHTPPEEPNECDFKNMDSLPSGKIHRKVKIILGRNRKENLEPNAEFDKRTEFITQEENRICSSPVQSLLDLFQTSEEKSEFLGFTSYTEKSGICNVLDIWEEENSDNLLTAFFSSPSTSTFTGF
notes: The range is worked out from the printed counts of deleted residues and a length of 674
binding result: no binding

B2: H37 deletion derivative ΔB fused to Gal4 activation domain (other, not shown: small tags and cut ends)
chain: MNSGAMRIHSKGHFQGGIQVKNEKNRPSLKSLKTDNRPEKSKCKPLWGKVFYLDLPSVTISEKLQKDIKDLGGRVEEFLSKDISYLISNKKEAKFAQTLGRISPVPSPESAYTAETTSPHPSHDGSSFKSPDTVCLSRGKLLVEKAIKDHDFIPSNSILSNALSWGVKILHIDDIRYYIEQKKKELYLLKKSSTSVRDGGKRVGSGAQKTRTGRLKKPFVKVEDMSQLYRPFYLQLTNMPFINYSIQKPCSPFDVDKPSSMQKQTQVKLRIQTDGDKYGGTSIQLQLKEKKKKGYCECCLQKYED
notes: The range is worked out from the printed count of deleted residues and a length of 674; also called deltaB
interaction relative to the full-length clone: ~10%

B3: H37 deletion derivative ΔP1 fused to Gal4 activation domain (other, not shown: small tags and cut ends)
chain: MNSGAMRIHSKGHFQGGIQVKNEKNRPSLKSLKTDNRPEKSKCKPLWGKVFYLDLPSVTISEKLQKDIKDLGGRVEEFLSKDISYLISNKKEAKFAQTLGRISPVPSPESAYTAETTSPHPSHDGSSFKSPDTVCLSRGKLLVEKAIKDHDFIPSNSILSNALSWGVKILHIDDIRYYIEQKKKELYLLKKSSTSVRDGGKRVGSGAQKTRTGRLKKPFVKVEDMSQLYRPFYLQ
binding result: no binding
